Results reported in publication PMC8509813, “Effect of Structural Changes Induced by Deletion of ^54[sequence]^61 Sequence in αB-crystallin on Chaperone Function and Anti-Apoptotic Activity” (International Journal of Molecular Sciences, 2021).
Values belong to the binder of their own block, whether it stands above or below them.

Experiments:
lysozyme = lysozyme (UniProt P00698 19-147); assay: cell-based or functional assay
luciferase = luciferase (UniProt P08659 1-550 = luciferase); assay: cell-based or functional assay
[1] = biological target: the molecule itself; assay: SEC-MALS; peak 2 (crystallin) of the mixtures with citrate synthase at 0 min, before incubation; TSK G5000PWXL column, MALS and quasi-elastic light scattering; homo-oligomer of ~20 kDa subunits

Chain of luciferase (P08659 whole entry): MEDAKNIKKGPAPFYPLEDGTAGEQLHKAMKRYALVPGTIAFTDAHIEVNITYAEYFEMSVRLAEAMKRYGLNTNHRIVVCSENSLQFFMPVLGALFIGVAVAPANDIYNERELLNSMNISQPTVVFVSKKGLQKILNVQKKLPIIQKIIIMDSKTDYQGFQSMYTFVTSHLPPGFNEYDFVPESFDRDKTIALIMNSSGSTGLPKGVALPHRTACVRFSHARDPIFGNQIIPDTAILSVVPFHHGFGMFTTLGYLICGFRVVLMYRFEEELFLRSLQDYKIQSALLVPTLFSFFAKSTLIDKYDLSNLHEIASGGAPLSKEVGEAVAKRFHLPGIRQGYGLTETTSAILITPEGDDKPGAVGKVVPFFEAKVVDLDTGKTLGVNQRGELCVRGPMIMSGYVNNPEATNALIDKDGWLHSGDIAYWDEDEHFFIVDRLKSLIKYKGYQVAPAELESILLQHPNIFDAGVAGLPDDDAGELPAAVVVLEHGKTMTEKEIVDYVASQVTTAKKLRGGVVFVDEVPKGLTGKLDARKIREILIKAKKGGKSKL
Chain of lysozyme (P00698 19-147): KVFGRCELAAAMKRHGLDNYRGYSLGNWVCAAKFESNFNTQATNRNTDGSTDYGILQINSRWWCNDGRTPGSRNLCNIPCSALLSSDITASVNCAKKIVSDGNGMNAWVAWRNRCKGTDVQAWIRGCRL

EC50: chaperone concentration that suppresses the aggregation of 10 µM lysozyme (2 mM DTT, PBS, 37 °C, light scattering at 360 nm) by 50% (lysozyme): 1.8 µM
EC50: chaperone concentration that suppresses the aggregation of 1 µM luciferase (PBS, 37 °C, light scattering at 360 nm) by 50% (luciferase): 9 µM
B1: αB-crystallin with residues 54–61 deleted (natural protein, human, UniProt P02511 1-175, looked up)
chain: MDIAIHHPWIRRPFFPFHSPSRLFDQFFGEHLLESDLFPTSTSLSPFYLRPPSDTGLSEMRLEKDRFSVNLDVKHFSPEELKVKVLGDVIEVHGKHEERQDEHGFISREFHRKYRIPADVDPLTITSSLSSDGVLTVNGPRKQVSGPERTIPITREEKPAVTAAPKK
notes: No tag is mentioned; 306 kDa by MALS; also called αBΔ54–61; deletion mutant; source: E. coli BL21(DE3)pLysS, purified (ammonium sulfate precipitation, gel filtration twice)
binding result [1]: binds

EC50: chaperone concentration that suppresses the aggregation of 10 µM lysozyme (2 mM DTT, PBS, 37 °C, light scattering at 360 nm) by 50% (lysozyme): 2.8 µM
EC50: chaperone concentration that suppresses the aggregation of 1 µM luciferase (PBS, 37 °C, light scattering at 360 nm) by 50% (luciferase): 48 µM
B2: wild-type αB-crystallin (natural protein, human, UniProt P02511 1-175, looked up)
chain: MDIAIHHPWIRRPFFPFHSPSRLFDQFFGEHLLESDLFPTSTSLSPFYLRPPSFLRAPSWFDTGLSEMRLEKDRFSVNLDVKHFSPEELKVKVLGDVIEVHGKHEERQDEHGFISREFHRKYRIPADVDPLTITSSLSSDGVLTVNGPRKQVSGPERTIPITREEKPAVTAAPKK
notes: αB-crystallin, human, wild type; subunit of ~20 kDa that forms a homo-oligomer; also called αB-wt; WT protein; source: E. coli BL21(DE3)pLysS, purified (ammonium sulfate precipitation, gel filtration twice)
binding result [1]: binds
